Key:
[1] = target: T1, recombinant human Hsp90 (human, UniProt P07900 1-732); assay: SPR competition: Hsp90 without peptide (0 uM, reference) over immobilized Hop TPR2A
T1 construct: The tag is placed first here only because pDEST17 is named; also called heat shock protein 90; not shown: histidine tag from E. coli expression vector pDEST17-Hsp90

[2] = target: T1, recombinant human Hsp90; assay: SPR competition: Hsp90 pre-mixed with 1.411 uM peptide, injected over immobilized Hop TPR2A
[3] = target: T1, recombinant human Hsp90; assay: SPR competition: Hsp90 pre-mixed with 14.11 uM peptide, injected over immobilized Hop TPR2A
[4] = target: T1, recombinant human Hsp90; assay: SPR competition: Hsp90 pre-mixed with 141.1 uM peptide, injected over immobilized Hop TPR2A
[5] = target: T1, recombinant human Hsp90; assay: SPR competition: Hsp90 pre-mixed with 282.2 uM peptide, injected over immobilized Hop TPR2A
[6] = target: T1, recombinant human Hsp90; assay: SPR competition: Hsp90 pre-mixed with 705.5 uM peptide, injected over immobilized Hop TPR2A

Row | Binding of Hsp90 (%) [1] | Binding of Hsp90 (%) [2] | Binding of Hsp90 (%) [3] | Binding of Hsp90 (%) [4] | Binding of Hsp90 (%) [5] | Binding of Hsp90 (%) [6] | Binder
1 | 100% | 88.2% | 84.6% | 72.3% | 29.8% | 0% | KAYARIGNSYFK [TPR peptide (KAYARIGNSYFK)]
2 | 100% | 100% | 100% | 100% | 90.7% | 88.9% | RKFSAAIGYNKY (Control peptide) [TPR scramble peptide]
